Our source for the relative pyrene-actin fluorescence after addition of 2.0 mM MgATP and stoichiometry N (myosin heads per actin) values is article doi:10.1101/287425.

For this experiment, the target named is pyrene-labeled actin (rabbit skeletal muscle F-actin) (rabbit) (UniProt P68135). In words: other fluorescence titration.

Regarding “single-headed S1 fragment of bovine ventricular cardiac myosin (from UniProt Q9BE39 1-1935; P85100 1-199) (complex)”, the relative pyrene-actin fluorescence after addition of 2.0 mM MgATP is 0.95 and the stoichiometry N (myosin heads per actin) was 1.
